Assay [1] has as its target T1, Urokinase plasminogen activator (Homo sapiens (Human), UniProt P00749). Briefly: inhibition of UK (35 nM) activity on S-2288; Ki as slope of [I]o/(1-a) vs. 1/a.
In assay [2] the target is T1, Urokinase plasminogen activator. Description: inhibition of UK activity; Ki by non-linear regression (Enzfitter) of free enzyme versus inhibitor concentration. As to the method: Fractional enzyme activities for each inhibitor-UK interaction of the above discussed inhibitors were determined by the assay method of Empie and Laskowski (Empie, M. W. et al., *Biochem.* 21:2274–2284 (1982)), as adapted from Green and Work (Green, N. M. et al., Biochem. J. 54:347–352 (1953)). The concentration of UK used for these reactions was 35 nM. The reactions were carried out in Buffer C. […] These five mutants include the four detailed above (88, 89, 80, AND 91), and also a mutant with arginine at the P1 site of OM3TKY (P1-Arg). […] The values for PSTI, PAI-1, PAI-2, and Nexin-1 were obtained from Turpeinen, U. et al. (*Biochem. J.* 254:911–914 (1988)), Kruithof, C.K.O. et al. (Thromb.-Haemost. 55::65–68 (1986)), Christensen, U. et al. (Thromb.-Haemost. 48:24–26 (1982)), and Stein, P. E. et al. (*Nature* 347:99–102 (1990)), respectively.
K_i values for the wild-type and mutant inhibitors versus urokinase were also determined by non-linear regression of the following equation: […]
The non-linear regression was done using the program Enzfitter, by Robin Leatherbarrow. E_o represents a total enzyme concentration in the reaction, I_o represents total inhibitor concentration, E is the free enzyme for a given inhibitor concentration and K_i is the equilibrium constant for the inhibitor. E and K_i are the unknowns in the equation, and are solved for during the regression analysis. Enzyme and inhibitor concentrations used were determined as mentioned above.

Data on four molecules can be found in patent US5550213, “Inhibitors of urokinase plasminogen activator” (Rutgers, The State University of New Jersey, dated 1996).

B1: The PAI-2 derived mutant, 88 (designed binder)
chain: VDCSEYPKPACGRTGHPLCGSDNKTYGNKCNFCNAVVESNGTLTLSHFGKC
As usually defined, the Ki is a dissociation constant, usually derived from enzyme kinetics or from competition with a known ligand. Consider B1, for which the figures for the inhibitory constant (Ki) in assay [1] and in assay [2] were 40 nM and 67.6 nM, respectively.

B2: The PAI-1 derived mutant, 89 (designed binder)
chain: VDCSEYPKPACARMAAPLCGSDNKTYGNKCNFCNAVVESNGTLTLSHFGKC
As to B2, the values for the Ki in assay [1] and in assay [2] were 0.31 nM and 35.9 nM, respectively.

B3: The Nexin-1 derived mutant, 91 (designed binder)
chain: VDCSEYPKPACARSSAPLCGSDNKTYGNKCNFCNAVVESNGTLTLSHFGKC
B3: the Ki turned out to be 120 nM in assay [1] and 505 nM in assay [2].

B4: The Plasminogen derived mutant, 90 (designed binder)
chain: VDCSEYPKPACGRVVGPLCGSDNKTYGNKCNFCNAVVESNGTLTLSHFGKC
B4: the inhibition constant (Ki) in assay [1] was 106 nM; in assay [2], 51.3 nM.
